# Changes are numbered by the printed parent chain. Numbers in names are those of the source. Where “and” joins values, the source holds several entries; their conditions need not be identical. Identical values can stand only once.
# B1: PR007268 (bispecific antibody, human IgG1, kappa)
# heavy: QVQLVESGGGVVQPGMSLRLSCAASGFDFSSYGMYWVRQAPGKGQEWVASIRYTGTEKHYADSVKGRFTISRDNSKNTLYLEMNSLRVEDTAVYYCAKNRAIFGVIPDDSDIRGQGTMVTVSSGGGGSQVQLVQSGAEVKKPGASVKVSCKASGYTFAGYYMYWVRQAPGQGLEWMGWINPDSGAPTYAQKFQGRVTMTRDTSISTAYMELSRLRSDDTAVYYCAREKIYYGSGNYYPSFDYWGQGTLVTVSSASTKGPSVFPLAPSSKSTSGGTAALGCLVKDYFPEPVTVSWNSGALTSGVHTFPAVLQSSGLYSLSSVVTVPSSSLGTQTYICNVNHKPSNTKVDKKVEPKSCDKTHTCPPCPAPEAAGAPSVFLFPPKPKDTLMISRTPEVTCVVVDVSHEDPEVKFNWYVDGVEVHNAKTKPREEQYNSTYRVVSVLTVLHQDWLNGKEYKCKVSNKALPAPIEKTISKAKGQPREPQVYTLPPSREEMTKNQVSLTCLVKGFYPSDIAVEWESNGQPENNYKTTPPVLDSDGSFFLYSKLTVDKSRWQQGNVFSCSVMHEALHNHYTQKSLSLSPGK
# light: DIQLTQSPSFLSASVGDRVTITCRASQGISSYLAWYQQKPGKAPKLLIYAASTLQSGVPSRFSGSGSGTEFTLTISSLQPEDFATYYCQQLYSYPWTFGQGTKVEIKRTVAAPSVFIFPPSDEQLKSGTASVVCLLNNFYPREAKVQWKVDNALQSGNSQESVTEQDSKDSTYSLSSTLTLSKADYEKHKVYACEVTHQGLSSPVTKSFNRGEC
# notes: VH of PR006246 (PD-L1) - GS_5 - heavy chain of CD40 IgG PR006497; human IgG1 L234A/L235A/G237A; also called PD-L1×CD40
# B2: PR007269 (bispecific antibody, human IgG1, kappa)
# heavy: B1 heavy
# light: B1 light with Y92N, S93N
# notes: VH of PR006246 (PD-L1) - GS_5 - heavy chain of CD40 IgG PR006511; human IgG1 L234A/L235A/G237A; also called PD-L1×CD40
# B3: PR007273 (bispecific antibody, human IgG1, kappa)
# heavy: B1 heavy with I106V, D109A
# light: B1 light with Y92A
# notes: VH of PR006245 (PD-L1) - GS_5 - heavy chain of CD40 IgG PR006495; human IgG1 L234A/L235A/G237A; also called PD-L1×CD40
# B4: PR007275 (bispecific antibody, human IgG1, kappa)
# heavy: B1 heavy with I102L, D109A
# light: B1 light with Y92A
# notes: VH of PR006247 (PD-L1) - GS_5 - heavy chain of CD40 IgG PR006495; human IgG1 L234A/L235A/G237A; also called PD-L1×CD40
# B5: PR007619 (bispecific antibody, human IgG1, kappa)
# heavy: QVQLVESGGGVVQPGMSLRLSCAASGFDFSSYGMYWVRQAPGKGQEWVASIRYTGTEKHYADSVKGRFTISRDNSKNTLYLEMNSLRVEDTAVYYCAKNRAIFGVIPDDSDIRGQGTMVTVSSGGSQVQLVQSGAEVKKPGASVKVSCKASGYTFAGYYMYWVRQAPGQGLEWMGWINPDSGAPTYAQKFQGRVTMTRDTSISTAYMELSRLRSDDTAVYYCAREKIYYGSGNYYPSFDYWGQGTLVTVSSASTKGPSVFPLAPSSKSTSGGTAALGCLVKDYFPEPVTVSWNSGALTSGVHTFPAVLQSSGLYSLSSVVTVPSSSLGTQTYICNVNHKPSNTKVDKKVEPKSCDKTHTCPPCPAPEAAGAPSVFLFPPKPKDTLMISRTPEVTCVVVDVSHEDPEVKFNWYVDGVEVHNAKTKPREEQYNSTYRVVSVLTVLHQDWLNGKEYKCKVSNKALPAPIEKTISKAKGQPREPQVYTLPPSREEMTKNQVSLTCLVKGFYPSDIAVEWESNGQPENNYKTTPPVLDSDGSFFLYSKLTVDKSRWQQGNVFSCSVMHEALHNHYTQKSLSLSPGK
# light: B1 light with Y92V
# notes: VH of PR006246 (PD-L1) - GS_3 - heavy chain of CD40 IgG PR006504; human IgG1 L234A/L235A/G237A; also called PD-L1×CD40
# B6: PR006495 (antibody, human IgG1, kappa, V domains shown)
# VH: QVQLVQSGAEVKKPGASVKVSCKASGYTFAGYYMYWVRQAPGQGLEWMGWINPDSGAPTYAQKFQGRVTMTRDTSISTAYMELSRLRSDDTAVYYCAREKIYYGSGNYYPSFDYWGQGTLVTVSS
# VL: DIQLTQSPSFLSASVGDRVTITCRASQGISSYLAWYQQKPGKAPKLLIYAASTLQSGVPSRFSGSGSGTEFTLTISSLQPEDFATYYCQQLASYPWTFGQGTKVEIKR
# notes: Variant of PR003379, L: N92A; human IgG1 L234A, L235A, G237A
# B7: PR006496 (antibody, human IgG1, kappa, V domains shown)
# VH: B6 VH
# VL: B6 VL with A92F
# notes: Variant of PR003379, L: N92F; human IgG1 L234A, L235A, G237A
# B8: PR006511 (antibody, human IgG1, kappa, V domains shown)
# VH: B6 VH
# VL: B6 VL with A92N, S93N
# notes: Variant of PR003379, L: S93N; human IgG1 L234A, L235A, G237A
# B9: PR006504 (antibody, human IgG1, kappa, V domains shown)
# VH: B6 VH
# VL: B6 VL with A92V
# notes: Variant of PR003379, L: N92V; human IgG1 L234A, L235A, G237A
# Biological target: T1, human PD-L1 (human, UniProt Q9NZQ7 19-290)
# T1 construct: whole, on cells; also called hPD-L1; CD274
# T1 sequence (Q9NZQ7 19-290): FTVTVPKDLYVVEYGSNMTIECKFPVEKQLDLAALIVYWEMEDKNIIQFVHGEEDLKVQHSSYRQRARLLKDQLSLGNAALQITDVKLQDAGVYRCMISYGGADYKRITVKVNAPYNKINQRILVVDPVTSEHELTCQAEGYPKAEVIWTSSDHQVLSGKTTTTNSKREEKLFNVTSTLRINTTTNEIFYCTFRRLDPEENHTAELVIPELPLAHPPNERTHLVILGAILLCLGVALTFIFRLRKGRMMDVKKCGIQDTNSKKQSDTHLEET
# Test: FACS, CHO-K1/hPD-L1 cells
# Description: (§1) Specifically, the cells expressing PD-L1 were digested and resuspended in PBS buffer containing 2% BSA. The cells were adjusted to a cell density of 1×10⁶ cells/mL, respectively. The cells were seeded in a 96-well V-bottom plate (Corning, #3894) at 100 μL/well, and the antibody to be tested at 2×final concentration with 4-fold concentration gradient dilution was then added at 100 μL/well. The cells were incubated at 4° C. for 2 hours in the dark. After the incubation, the cells were rinsed twice by adding pre-chilled PBS containing 2% BSA at 100 μL/well, and centrifuged at 500 g at 4° C. for 5 minutes, and the supernatant was discarded. […] The cells were washed twice by adding pre-chilled PBS containing 2% BSA at 100 µL/well, and centrifuged at 500 g at 4° C. for 5 minutes, and the supernatant was discarded. Finally, the cells were resuspended in pre-chilled PBS buffer containing 2% BSA at 200 μL/well. The fluorescence signal values were read using a BD FACS CANTOII flow cytometer or ACEA NovoCyte flow cytometer, and the data were processed and analyzed using FlowJo v10 software (FlowJo, LLC).
EC50,Maximum MFI,Binder
1.08 nM,19600 MFI,B1
1.12 nM,19700 MFI,B2
1.39 nM,19800 MFI,B3
1.29 nM,20000 MFI,B4
1.02 nM,20100 MFI,B5

# Biological target: T2, human CD40 (human, UniProt P25942 21-277)
# T2 construct: whole, on cells; also called hCD40; TNFRSF5
# T2 sequence (P25942 21-277): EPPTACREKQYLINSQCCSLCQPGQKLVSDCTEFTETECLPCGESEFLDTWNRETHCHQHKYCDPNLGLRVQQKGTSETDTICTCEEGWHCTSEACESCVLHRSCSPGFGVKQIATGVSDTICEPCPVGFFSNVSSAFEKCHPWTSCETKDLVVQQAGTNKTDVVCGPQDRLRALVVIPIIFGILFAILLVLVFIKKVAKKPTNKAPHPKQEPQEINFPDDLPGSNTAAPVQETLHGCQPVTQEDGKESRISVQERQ
# Test: FACS, CHO-K1/hCD40 cells
# Description: (§2) The cells were incubated at 4° C. for 1 hours in the dark. After the incubation, the cells were rinsed twice by adding pre-chilled PBS at 100 μL/well, and centrifuged at 500 g at 4° C. for 5 minutes, and the supernatant was discarded. Then, a fluorescent secondary antibody (goat anti-human IgG (H+L) secondary antibody, Alexa Fluor® 488 conjugate, Invitrogen, #A11013, 1:1000 dilution) was added at 100 μL/well, and the cells were incubated at 4° C. for 30 minutes in the dark. The cells were washed twice with pre-chilled PBS at 200 μL/well, and centrifuged at 500 g at 4° C. for 5 minutes, and the supernatant was discarded. Finally, the cells were resuspended in pre-chilled PBS at 200 μL/well. The fluorescence signal values were read using a BD FACS CANTOII flow cytometer or ACEA NovoCyte flow cytometer, and the data were processed and analyzed using FlowJo v10 software (FlowJo, LLC).
EC50,Maximum MFI,Binder
1.65 nM,16300 MFI,B1
2.4 nM,16400 MFI,B2
2.05 nM,14300 MFI,B3
2.57 nM,14200 MFI,B4
2.5 nM,17700 MFI,B5

# Biological target: T1, human PD-L1
# Test: cell-based or functional assay
"EC50, Jurkat-NFAT-hPD1 reporter","Maximum (RLU), Jurkat-NFAT-hPD1 reporter",Binder
0.181 nM,2810 RLU,B1
0.162 nM,2910 RLU,B2
0.109 nM,2520 RLU,B3
0.234 nM,2840 RLU,B4
0.122 nM and 0.309 nM,,B5

# Biological target: T3, cynomolgus monkey CD40 (cynomolgus monkey)
# T3 construct: whole, on cells; also called cyCD40
# Test: FACS, CHO-K1/cyCD40 cells
# Description: as §2
EC50,Maximum MFI,Binder
2.8 nM,65700 MFI,B1
2.57 nM,53000 MFI,B2
4.2 nM,71300 MFI,B3
4.12 nM,66000 MFI,B4
1.77 nM,51300 MFI,B5

# Biological target: T2, human CD40
# Test: cell-based or functional assay
"EC50, HEK293-hCD40-NFκB reporter, + CHO-K1","EC50, HEK293-hCD40-NFκB reporter, + CHO-K1/hPD-L1","Maximum (RLU), HEK293-hCD40-NFκB reporter, + CHO-K1","Maximum (RLU), HEK293-hCD40-NFκB reporter, + CHO-K1/hPD-L1",Binder
0.266 nM,0.0571 nM,156000 RLU,286000 RLU,B1
0.234 nM,0.0692 nM,189000 RLU,271000 RLU,B2
0.238 nM,0.0598 nM,199000 RLU,333000 RLU,B3
0.213 nM,0.0558 nM,231000 RLU,371000 RLU,B4
0.334 nM,0.0312 nM,3880 RLU,4780 RLU,B5

# Biological target: T2, human CD40
# Test: cell-based or functional assay
# Remark: another data set of the same source
"EC50, HEK293-hCD40-NFκB reporter, crosslinked","EC50, HEK293-hCD40-NFκB reporter, uncrosslinked",Fold (EC50 in the absence of crosslinking/EC50 in the presence of crosslinking),"Maximum fold, HEK293-hCD40-NFκB reporter, crosslinked","Maximum fold, HEK293-hCD40-NFκB reporter, uncrosslinked",Binder
0.109 nM,0.905 nM,8.28 fold,5.54 fold,4.92 fold,B6
0.217 nM,0.43 nM,1.98 fold,5.03 fold,4.43 fold,B7

# Biological target: T4, cynomolgus monkey PD-L1 (cynomolgus monkey)
# T4 construct: whole, on cells; also called cyPD-L1
# Test: FACS, CHO-K1/cyPD-L1 cells
# Description: as §1
EC50,Maximum MFI,Binder
0.68 nM,4550 MFI,B1
0.714 nM,4670 MFI,B2
0.89 nM,4620 MFI,B3
0.807 nM,4620 MFI,B4
0.629 nM,4820 MFI,B5

# Biological target: T2, human CD40
# Test: FACS, Raji cells
# Description: as §2
# Data processing and graphical analysis were performed using GraphPad Prism 8 software. The binding curve of the antibody to the target cell and parameters, such as EC₅₀ value were obtained by four-parameter nonlinear fitting.
EC50,Maximum MFI,Binder
0.356 nM,8870 MFI,B6
0.386 nM,11800 MFI,B8
0.277 nM,9300 MFI,B7
0.35 nM,12200 MFI,B9

# Biological target: T2, human CD40
# Test: FACS, Raji cells
# Remark: another data set of the same source
# Description: as §2
EC50,Maximum MFI,Binder
1.38 nM,7430 MFI,B1
1.46 nM,7570 MFI,B2
1.43 nM,7580 MFI,B3
1.58 nM,7650 MFI,B4
1.26 nM,6790 MFI,B5

# Biological target: T1, human PD-L1
# Test: FACS, NCI-H226 cells
# Description: as §1
EC50,Maximum MFI,Binder
0.42 nM,869 MFI,B1
0.521 nM,869 MFI,B2
0.773 nM,914 MFI,B3
0.764 nM,959 MFI,B4
0.366 nM,914 MFI,B5

# Source: patent publication US20250215089A1 (HARBOUR BIOMED SHANGHAI, published 2025)
